# Assay results from the supplement of paper PMC7125110.
# ± gives the standard error. Variants at the floor of the assay were thinned out.
# B1: glmS ribozyme (parent)
# chain: AUAAAAGCGCCAGAACUACAGAAAUGUAGUUGACGAGGAGGAGGUUUAUCGAAUUUUCGGCGGAUGCCUCCAAA
# Assays:
# Details in all cases: with glucosamine-6-phosphate
# glucosamine-6-phosphate [1] = variants of: B1; experiment: self-cleavage kobs at 160 uM GlcN6P; higher = faster cleavage; RNA array
# Method in brief: (§1)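 Weighted Michaelis–Menten fits across concentrations supplied kcat and KM, based on kobs from one- or two-exponential decay fits to normalised per-tile medians. The data came from barcoded ribozyme variants transcribed in situ by E. coli RNA polymerase on sequenced MiSeq chips and tracked at 37 °C by a hybridised Cy3 probe. Glucosamine-6-phosphate (40 μM to 10 mM) in HEPES/KCl/Mg(OAc)2 buffer was flowed in.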
# glucosamine-6-phosphate [2] = variants of: B1; experiment: self-cleavage kobs at 640 uM GlcN6P; higher = faster cleavage; RNA array
# Method in brief: as §1
# glucosamine-6-phosphate [3] = variants of: B1; experiment: self-cleavage kobs at 2500 uM GlcN6P; higher = faster cleavage; RNA array
# Method in brief: as §1
# glucosamine-6-phosphate [4] = variants of: B1; experiment: self-cleavage kobs at 10000 uM GlcN6P; higher = faster cleavage; RNA array
# Method in brief: as §1
Variant,self-cleavage kobs at 160 uM GlcN6P (glucosamine-6-phosphate [1]) [s⁻¹],self-cleavage kobs at 640 uM GlcN6P (glucosamine-6-phosphate [2]) [s⁻¹],self-cleavage kobs at 2500 uM GlcN6P (glucosamine-6-phosphate [3]) [s⁻¹],self-cleavage kobs at 10000 uM GlcN6P (glucosamine-6-phosphate [4]) [s⁻¹]
AUAAAAGCGGUAGAAAUACAGAAAUGUAGUUGUUGAGGAGGAGGUUUAUGGAAUUUUCGGCGGAUGCCUUCAAA [C10G C11U C16A A33U C34U C50G C70U],4.84e-05 ± 2.3e-05,4.89e-05 ± 1.6e-05,6.14e-05 ± 2.5e-05,–
AUAAAAGCCCCCGAACUACAGAAAUGUAGUCGACGAGGAGGAGGUUUAUCGAAUUUUCGGCGGAUGCCUCCAAA [G9C A12C U31C],< 1e-05,< 1e-05,< 1e-05,–
AUAAAAGGGCCAGAAGUACAGAAAUGUAGUUGACGAGGAGGAGGUUUAUCGAAUUUUCGGCGGAUGCCUCCAAA [C8G C16G],< 1e-05,< 1e-05,< 1e-05,< 1e-05
AUAAAAGCGCCAGAACUACAGAAAUGUAGUUGACGAGGAGGAGGUUUAUCGAAUUUUCGGUGGCUGGCUCCAAA [C61U A64C C67G],< 1e-05,–,< 1e-05,–
AUAAAUGCGCCAGAACUACAGAAAUGUAGUUGACGAGGAGGAGGUUAAUCGAUUUUUCGGCGGAUGCCUCCAAA [A6U U47A A53U],< 1e-05,–,–,–
AUAAAAGCGCCAGAACUACAGAAAUGUAGUUGACGCGGAGGAGGUUUAACGAAUUUUCGGCGGAUGCCUUCAAA [A36C U49A C70U],4.96e-05 ± 2e-05,–,–,–
AUAAAAGCGCCAGAACUACAGAAAUGUAGUUGACGUGGAGGAGGUUUAUCCAAUUUUCGGCGGAUGCCUCCAAA [A36U G51C],< 1e-05,< 1e-05,–,< 1e-05
AUAAAAGGGCCAGAACUACAGAAAUGUAGGUGACGAAGAGGAGGUUUAUCGAAUUUUCGGCGGAUACCGCCAAA [C8G U30G G37A G66A U69G],0.000132 ± 4.9e-05,0.000166 ± 6e-05,–,–
AUAAAAGUGCCAGAACUACAGAAAUGUAGUUGACGAGGAGGAGGUUUAUCGAAUUUUCGGGGGAUGCCUCCAAA [C8U C61G],< 1e-05,< 1e-05,< 1e-05,< 1e-05
AUAAAAGCUCCAGAACUACAGAAAUGUAGUUGACGAGGAGGAAGUUUAUCGAAUUUUCGGCGGAUUCCUCCAAA [G9U G43A G66U],< 1e-05,–,< 1e-05,–
AUAAAAGGGCCAGAACUACAGAAAUGUAGAUGACGAGGAUGAGGUUUAUCGAAUUUUCGGCGGAUGCCUCCAAA [C8G U30A G40U],< 1e-05,–,< 1e-05,–
AUAAAAGCGCCAGAACUACAGAAAUGUAGUCGACGAGGAGAAGGUUUAUCGAAUUUUCUGCGGAUGCCUCCAAA [U31C G41A G59U],< 1e-05,< 1e-05,< 1e-05,–
AUAAAAGCGCCAGAACUACAGAAAUGUAGUUGACGAGGAGGAGUUUUAUCGAAUUUUAGGCGGAUGCCUCAAAA [G44U C58A C71A],< 1e-05,< 1e-05,< 1e-05,–
AUAAAAGCGCCAGAACUACAGAAAUGUAGUUGACGAGGAGGAGGUUUAUCGAAUAUUCGGCGGGUGCCUCAAAA [U55A A64G C71A],0.000178 ± 4.2e-05,0.000572 ± 0.00013,–,–
AUAAAAGCGCCAGAACUACAGAAAUGUAGUUGACGAGGAGAAGGUUUAUCGAAUGUUCGGCGGAUGCCUCAAAA [G41A U55G C71A],5.4e-05 ± 1.6e-05,8.59e-05 ± 2.3e-05,0.000196 ± 3.5e-05,–
